Results on two molecules are retold here after patent publication US20150284723A1 (MEDICAL DIAGNOSTIC LABORATORIES, published 2015).

Experiment [1] addresses protein phosphatase 2A (PP2A). Briefly: cell-based or functional assay.
The target of experiment [2] is T1, FLAG-tagged PME-1 (wild-type protein methylesterase 1) (human, UniProt Q9Y570 1-386).
T1 construct: Expressed in stably transfected ECC-1 cells and pulled down with FLAG resin; also called FLAG-PME-1; not shown: FLAG tag
T1 sequence (looked up): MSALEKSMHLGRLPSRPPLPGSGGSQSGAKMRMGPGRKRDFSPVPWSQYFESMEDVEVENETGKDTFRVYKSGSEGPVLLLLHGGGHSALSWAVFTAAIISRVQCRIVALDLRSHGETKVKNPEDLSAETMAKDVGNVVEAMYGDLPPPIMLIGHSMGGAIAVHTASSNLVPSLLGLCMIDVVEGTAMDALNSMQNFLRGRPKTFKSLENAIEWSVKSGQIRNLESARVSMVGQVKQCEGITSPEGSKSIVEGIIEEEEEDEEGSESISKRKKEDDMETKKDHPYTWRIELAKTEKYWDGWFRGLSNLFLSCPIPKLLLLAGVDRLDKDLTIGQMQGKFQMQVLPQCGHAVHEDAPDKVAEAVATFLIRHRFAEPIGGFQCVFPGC
Briefly: FLAG co-immunoprecipitation from ECC-1 lysate, Western blot with anti-Ppp6c. From the text: (§1) Cells (post-transfection) were collected and cellular protein was extracted. Input depicts the relative expression of each protein in total cell lysate, whereas the elution depicts proteins that were immunoprecipitated with FLAG resin.
(§2) There are other protein phosphatases in the same family as PP2A in cells that share some similarity to PP2A. In this experiment, we examined if PME-1 binding to Ppp2ca is specific over other phosphatases. We chose to examine phosphatase 4 (PP4) and phosphatase 6 (PP6) since the C-terminal tail of the catalytic subunit of PP2A (i.e., Ppp2ca) is TPDYFL (amino acids 304-309 of SEQ ID NO: 12) (the substrate for PME-1 demethylation) is similar to that of protein phosphatase 4 (i.e., Ppp4c) (VADYFL) (amino acids 302-307 of SEQ ID NO: 13) and phosphatase 6 (i.e., Ppp6c), (TTPYFL) (amino acids 300-305 of SEQ ID NO: 14), respectively. Specifically, we examined if PME-1 may bind and demethylate PP4 or PP6.
(In general: A western blot detects proteins with antibodies after separation by electrophoresis.)

The target of experiment [3] is T2, FLAG-tagged PME-1 S156A (catalytically inactive mutant) (human, UniProt Q9Y570 1-386).
T2 construct: Expressed in stably transfected ECC-1 cells and pulled down with FLAG resin; also called FLAG-PME-1 S156A; FLAG PME-1 S156A; not shown: FLAG tag
T2 sequence (looked up): T1 sequence (looked up) with S156A
The experiment is described as above.
Excerpt: as §1, §2

Changes are numbered by the printed parent chain.

Regarding “PME-1 protein (endogenous, over-expressed or depleted in cells) (from UniProt Q9Y570 2-386) (enzyme)”, in experiment [1], the PP2A phosphatase activity (RL95-2 cells over-expressing PME-1) was determined as 90 % decrease and the PP2A phosphatase activity (RL95-2 cells, shRNA against PPME1) (fold increase) was determined as 30.

B1: Ppp6c, the catalytic subunit of PP6 (endogenous) (enzyme)
chain: MAPLDLDKYVEIARLCKYLPENDLKRLCDYVCDLLLEESNVQPVSTPVTVCGDIHGQFYDLCELFRTGGQVPDTNYIFMGDFVDRGYYSLETFTYLLALKAKWPDRITLLRGNHESRQITQVYGFYDECQTKYGNANAWRYCTKVFDMLTVAALIDEQILCVHGGLSPDIKTLDQIRTIERNQEIPHKGAFCDLVWSDPEDVDTWAISPRGAGWLFGAKVTNEFVHINNLKLICRAHQLVHEGYKFMFDEKLVTVWSAPNYCYRCGNIASIMVFKDVNTREPKLFRAVPDSERVIPPRTTTPYFL
notes: Endogenous protein in the lysate of the human ECC-1 cell line; also called phosphatase 6
Turning to B1, the binding result in experiment [2] and in experiment [3] was “no binding” throughout.
